Experimental data: patent publication EP1324044A1

Molecular target: Fas receptor on primary mouse thyroid follicular cells (TFC) (mouse) (UniProt P25446)
Assay: cell-based or functional assay

Chain of UniProt P25446 (P25446 22-327): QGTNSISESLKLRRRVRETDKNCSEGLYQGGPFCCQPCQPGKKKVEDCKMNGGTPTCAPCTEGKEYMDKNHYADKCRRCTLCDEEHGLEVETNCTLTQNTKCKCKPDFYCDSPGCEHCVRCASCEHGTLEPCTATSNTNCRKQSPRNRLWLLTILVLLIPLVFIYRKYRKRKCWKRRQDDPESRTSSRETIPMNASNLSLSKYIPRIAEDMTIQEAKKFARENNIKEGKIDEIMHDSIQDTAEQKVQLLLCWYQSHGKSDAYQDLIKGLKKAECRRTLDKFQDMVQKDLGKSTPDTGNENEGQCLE

clone Jo2 anti-Fas antibody gave a percentage of proliferation increase of anti-Fas versus control cultures ([3H] thymidine), 48h of 37%, a percentage of proliferation increase of anti-Fas versus control cultures ([3H] thymidine), 72h of 49% and a percentage of proliferation increase of anti-Fas versus control cultures ([3H] thymidine), 96h of 61%. For the same substance, the proliferation of anti-Fas treated TFC ([3H] thymidine, mean cpm of six wells) was 392 to 1510 cpm.
